Experiments:
DNase I = DNase I digestion monitored by TLC; format: in vitro ADME; conditions: for DNase I digestion after six hours (TLC, FIG. 6): model oligonucleotide
Source text: Nucleases and proteases are common and result in extremely short half-life for biomolecules not protected from the in vivo environment. In addition, carboxylesterases (CES) are known to be present in many cancerous tumor cells. Therefore, the ability of the biomolecule-polymer conjugates of the disclosure to withstand degradation in the presence of fetal calf serum (FCS) and either DNase I, or 51 nuclease is investigated, as well as the ability of carboxylesterase 1 to degrade the biomolecule-polymer conjugates and release the biomolecule.
Concentrations of treatments were as follows: FCS (30%), DNase I (30 units), 51 nuclease (10 units). Digestions were conducted at 37° C. and monitored by either thin layer chromatography or gel electrophoresis.

[1] = tested on: bacterial 16S ribosomal RNA gene; assay: PCR amplification with 8F primer conjugates, gel electrophoresis; format: biochemical
Source text: The retention and recovery of the original functionality of the biomolecule is a characteristic of the conjugates of the disclosure. In order to test the ability of an oligonucleotide-polymer conjugate of the disclosure to functionally bind its complementary sequence, PCR primers were utilized. The universal bacterial primers 8F (5′-[…]-3′, SEQ ID NO:2) and 1392R (5′-ACGGGCGGTGTGTACA-3′, SEQ ID NO:3) were used to amplify a portion of the bacterial 16S ribosomal RNA gene. The 8F primer conjugated to MPEG-550 networked with MPEG-550 were prepared according to Examples 7 and 9 above, and subjected to DNase I degradation studies.
The MPEG550 conjugate and the MPEG550-networked-conjugate were then treated with NH4OH to release the PCR primers from the MPEG550 via chemical degradation and PCR amplification was then performed. Each 50-μl PCR mixture contained 1 μl template DNA (either E. coli. or an environmental isolate belonging to the genus Streptomonospora), 2 U Taq DNA polymerase (Eppendorf), 1×Taq buffer, […] Mg(OAc)2, 1×Taq Master PCR Enhancer, each deoxynucleoside triphosphate at a concentration of 20 μM, and each primer at a concentration of 0.4 μM. The PCR conditions were 85° C. for 5 min, 30 cycles of 94° C. for 45 s, 55° C. for 1 min, and 72° C. for 90 s, with a final 7 min extension at 72° C.

Substance | DNase I digestion after six hours (TLC, FIG. 6) (DNase I; DNase I 30 units, 37° C.) | PCR amplification product after NH4OH treatment (1% agarose gel) ([1]; conjugate cleaved in NH4OH for 15 minutes and 18 hours before PCR) | PCR amplification product (1% agarose gel) ([1]; each primer 0.4 μM, with 1392R primer, 30 cycles) | DNase I digestion after one hour (TLC, FIG. 9) (DNase I; 8F PCR primer conjugates, DNase I, one hour) | DNase I digestion after one hour (TLC, FIG. 5) (DNase I; DNase I 30 units, 37° C., one hour, model oligonucleotide of Example 1) | DNase I digestion after 3 hours following NH4OH treatment (TLC, FIG. 7) (DNase I; conjugate treated with NH4OH to cleave the L-X bond, then DNase I, 3 hours)
5′-TTTTATTTTATTTTATTTTA-3′ (model oligonucleotide, sugar chemistry not given here, further chemistry not given here) [native model oligonucleotide, reference compound] | completely digested |  |  |  |  | 
MPEG550 conjugate: universal bacterial 8F PCR primer (SEQ ID NO:2) conjugated to MPEG-550 according to Example 7 (DNA AGAGTTTGATCCTGGCTCAG; primer conjugated to MPEG-550, position not given here) |  | yielded the appropriate size amplification product | functional and yielded the appropriate size amplification product | resistant to nuclease degradation |  | 
oligonucleotide-MPEG conjugate: model oligonucleotide of Example 1 (SEQ ID NO:1) conjugated to MPEG550 (methoxy-terminated PEG, MW 550) (TTTTATTTTATTTTATTTTA; DNA, backbone not given here; conjugated to MPEG550 via propargyl chloroformate chemistry, further chemistry not fully specified) | remained intact |  |  |  | resistant to DNase I treatment | allowed for degradation by DNase I
